The source of these data is US20250332297A1, “DLL3-SPECIFIC BINDING CONSTRUCTS AND THEIR USE IN RADIOTHERAPY” (MOLECULAR PARTNERS AG, priority 2024, published 2025).

The Cmax is the maximum level reached in the sampled fluid or tissue. Broadly, the Tmax is the time at which the peak concentration occurs.

The series in a line: Pharmacokinetic analysis in WT BALBc mice (serum, ELISA). The class given is in vivo, mouse. An excerpt: The pharmacokinetic (PK) properties of lead-labelled DARPin (MAM160, MAM279, MAM282, MAM283) conjugates were investigated in mice, including to determine the terminal half-life (or serum half-life) of these conjugates.
In brief, DARPins MAM279, MAM283, MAM160 and MAM282 were conjugated to the chelator DOTAM, via a C-terminal Cysteine containing tag and a connector, as described in Example 3. The conjugates were then labelled with natural lead (Pb). The protein components of the conjugates corresponded to SEQ ID NOs: 15 to 18, respectively. These lead-labelled DARPin conjugates were injected i.v. at 1 mg/kg into WT BALBc mice. Serum was collected 2 min, 10 min, 30 min, 1 h, 4 h, 24 h, 48 h, and 72 h post-injection. DARPins were detected and measured by ELISA. The data were expressed as the DARPin concentration in serum (nmol/L).
In brief, lead-labelled MAM279 conjugate, as described in Example 13, was injected i. at 0.1 mg/kg or at 1 mg/kg into the tail vein of WT BALBc mice. Serum was collected 2 min, 10 min, 30 min, 1 h, 4 h, 24 h, 48 h, and 72 h post-injection for MAM279 conjugate injected at 1 mg/kg, and 2 min, 30 min, 4 h, 24 h, 30 h, 48 h, 72 h, 96 h, and 168 h post-injection for MAM279 conjugate injected at 0.1 mg/kg. DARPins were detected and measured by ELISA. The data were expressed as the DARPin concentration in serum (nmol/L).
In brief, natural lead-labelled MAM279 conjugate, as described in Example 13, was injected i.v. at different doses (0.001 mg/kg, 0.01 mg/kg, 0.1 mg/kg, or 1 mg/kg) into the tail vein of WT BALBc mice. Similarly, unconjugated Rova was injected iv. at 1 mg/kg into the tail vein of WT BALBc mice. Serum was collected 2 min, 10 min, 30 min, 1 h, 4 h, 24 h, 48 h, and 72 h post-injection for MAM279 conjugate injected at 1 mg/kg, and 2 min, 30 min, 4 h, 24 h, 30 h, 48 h, 72 h, 96 h, and 168 h post-injection for MAM279 conjugate injected at 0.1 mg/kg, 0.01 mg/kg and 0.001 mg/kg. Serum was collected 2 min, 30 min, 4 h, 24 h, 30 h, 48 h, 72 h, 96 h, and 168 h post-injection for Rova antibody injected at 1 mg/kg. DARPins and Rova were detected and measured by ELISA. Rova PK characteristics were calculated with time points between 4 h and 168 h and MAM279 conjugate PK characteristics were calculated with time points between 4 h and 72 h. The data were expressed as the DARPin or Rova concentration in serum (nmol/L). Results are shown in FIGS. 19A and 19B and Table 22.
Background: An ELISA detects its analyte on a solid surface through an enzyme-linked reagent.

Where [1] appears, read: natural lead-labelled DOTAM conjugate 1 mg/kg i.v., Tables 16, 17.
Setting [2] is: 1 mg/kg i.v., MAM279 natural lead-labelled conjugate (time points 4-72 h), Rova unconjugated (4-168 h), Table 22.
[3] abbreviates: 1 mg/kg i.v., MAM279 natural lead-labelled conjugate, Rova unconjugated, Table 22.

B1: MAM160: Two domain (2D) ankyrin repeat protein: serum albumin-specific domain (SEQ ID NO: 7), PT linker, DLL3-specific domain MAM120 (protein)
chain: DLGKKLLEAARAGQDDEVRELLKAGADVNAKDYFSHTPLHLAARNGHLKIVEVLLKAGADVNAKDFAGKTPLHLAADAGHLEIVEVLLKAGADVNAQDIFGKTPADIAADAGHEDIAEVLQKAAGSPTPTPTTPTPTPTTPTPTPTGSDLGTKLLSAAADGQDDEVRELLQAGADVNAKDLFGYTPLHLAAWRGHLEIVEVLLEAGADVNAKDAAGLTPLHLAAWFGHLEIVEVLLEAGADVNAQDVQGVTPADLAAKEGHEDIAEVLQQAA
modifications: Ankyrin repeat protein (MAM160)
On to B1, for which, under setting [1], the AUCINF_pred was 4.5873 µM·h, the “AUC_% Back_Ext_pred” value is listed as 1%, the “AUC_% Extrap_pred” value came out at 0% and the AUClast was found to be 4578.7 nmol·h/L. Under setting [1], the CI_pred came out at 7.4 mL/h/kg, the Cmax is 625 nM, the HL_Lambda_z was found to be 8.3 h and the Tmax was determined as 1.98 min. This molecule had a Vss_pred under setting [1] of 0.060 L/kg.

B2: MAM279 conjugate: SEQ ID NO: 15 conjugated to DOTAM-maleimide, labelled with Pb-212 (natural lead in PK studies) (conjugate)
chain: GSDLGKKLLEAARAGQDDEVRELLKAGADVNAKDYFSHTPLHLAARNGHLKIVEVLLKAGADVNAKDFAGKTPLHLAADAGHLEIVEVLLKAGADVNAQDIFGKTPADIAADAGHEDIAEVLQKAAGSPTPTPTTPTPTPTTPTPTPTGSDLGKKLLAAAAQGQDDEVRELLKAGANVNAKDLFGYTPLHLAAWRGHLEIVEVLLKAGADVNAKDAAGETPLHLAAWFGHLEIVEVLLKAGADVNAQDLQGKTPADLAAKEGHEDIAEVLQKAAGSGSC
modifications: DOTAM-maleimide, Pb-212 label; Ankyrin repeat protein with tag (GS-MAM279-tag)
With B2, the serum half-life stood at 39.9 h (0.001 mg/kg i.v.), 33.1 h (0.01 mg/kg i.v.), 32.8 h (0.1 mg/kg i.v.) and 30.5 h (1 mg/kg i.v.).

B3: Rova: Rova antibody, DLL3-binding benchmark antibody used as positive control and comparison (antibody, chains of the INN, looked up, V domains shown)
VH: QVQLVQSGAEVKKPGASVKVSCKASGYTFTNYGMNWVRQAPGQGLEWMGWINTYTGEPTYADDFKGRVTMTTDTSTSTAYMELRSLRSDDTAVYYCARIGDSSPSDYWGQGTLVTVSS
VL: EIVMTQSPATLSVSPGERATLSCKASQSVSNDVVWYQQKPGQAPRLLIYYASNRYTGIPARFSGSGSGTEFTLTISSLQSEDFAVYYCQQDYTSPWTFGQGTKLEIK
With B3, for the setting “1 mg/kg i.v.”, the serum half-life entry is “about 145 hours”. Further, under setting [2], the AUCINF_pre was 11.9183 µM·h, the AUClast was 6636.1 h*hr*nmol/L and the HL_Lambda_z stood at 145.8 h. Further, under setting [3], the AUC_%Back_Ext_pre came out at 0%, the AUC_%Extrap_Pred is recorded as 44%, the Cl_pred worked out at 0.6 mL/h/kg and the Cmax came out at 130 nM. Further, under setting [3], the Tmax was 1.98 min and the Vss_pred is listed as 0.12 L/kg.
